In publication PMC10933150:

What was measured:
[1] = molecular target: α7-mCherry (human α7 nicotinic acetylcholine receptor subunit with mCherry in the M3-M4 cytoplasmic loop) (human) (UniProt P36544); assay: FRET or BRET; acceptor photobleaching FRET (apFRET) by confocal microscopy in live HEK293 cells 2 days after transfection; eGFP donor, mCherry acceptor; region of interest in the ER; in DMEM at 37 °C and 5% CO2
[2] = molecular target: α7-mCherry (human α7 nicotinic acetylcholine receptor subunit with mCherry in the M3-M4 cytoplasmic loop) (human) (UniProt P36544)
[3] = molecular target: α7-mCherry (human α7 nicotinic acetylcholine receptor subunit with mCherry in the M3-M4 cytoplasmic loop) (human) (UniProt P36544); remark: listed apart in the source

UniProt P36544, sequence (P36544 23-502): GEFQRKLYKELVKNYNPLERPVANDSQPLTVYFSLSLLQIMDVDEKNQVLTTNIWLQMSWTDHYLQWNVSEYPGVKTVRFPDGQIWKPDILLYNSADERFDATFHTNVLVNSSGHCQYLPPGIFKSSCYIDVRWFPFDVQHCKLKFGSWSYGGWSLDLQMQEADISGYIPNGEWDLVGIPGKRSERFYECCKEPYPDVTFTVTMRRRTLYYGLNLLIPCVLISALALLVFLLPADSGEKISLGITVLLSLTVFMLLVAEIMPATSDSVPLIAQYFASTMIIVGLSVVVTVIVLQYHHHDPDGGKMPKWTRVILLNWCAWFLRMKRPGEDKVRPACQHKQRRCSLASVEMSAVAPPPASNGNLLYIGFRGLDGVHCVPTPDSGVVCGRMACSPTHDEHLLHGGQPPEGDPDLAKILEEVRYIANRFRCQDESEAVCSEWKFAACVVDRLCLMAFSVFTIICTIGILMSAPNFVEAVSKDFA

eGFP-RIC3G88R (RIC3 variant G88R with eGFP fused to the N-terminus) (from UniProt Q7Z5B4-5 29-368) (natural protein)
FRET efficiency (EF) [1]: 10.7% | fold decrease in amplitude of maximal currents elicited by 1 mM acetylcholine in Xenopus oocytes (level of functional α7 nAChR); untagged α7 and RIC3G88R, tagged constructs gave the same pattern (data not shown) [2]: 1.5 fold | ^125I-α-bungarotoxin binding to intact HEK293 cells (cell surface α7), decrease with eGFP-RIC3G88R against eGFP-RIC3WT, α7:RIC3 cDNA 1:1 or 5:1 [3]: 50%

eGFP-RIC3WT (wild-type RIC3 with eGFP fused to the N-terminus) (from UniProt Q7Z5B4-5 29-368) (natural protein)
FRET efficiency (EF) [1]: 7.24%
